Holding throughout (conditions): both partners purified
Assay [1] concerns the target T1, human cyclophilin A (human, UniProt P62937 1-165).
T1 construct: also called CypA; peptidyl prolyl isomerase cyclophilin A; source: recombinant, highly pure; production and purification described previously [14]
As to the kind of experiment: SPR.

Assay [2] deals with T1, human cyclophilin A. Nature of the assay: SPR. This is another data set of the same source.
The target of assay [3] is T1, human cyclophilin A. As to the kind of experiment: ITC.

Several values for one entry are separate records, joined by “and”; a condition that tells them apart may be missing. Equal values may be shown once.

T1 sequence (P62937 whole entry): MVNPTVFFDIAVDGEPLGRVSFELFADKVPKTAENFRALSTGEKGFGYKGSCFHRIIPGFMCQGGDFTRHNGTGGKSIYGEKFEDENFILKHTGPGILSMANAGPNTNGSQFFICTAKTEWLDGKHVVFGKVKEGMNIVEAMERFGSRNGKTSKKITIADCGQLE

AVRHFPRIWLH [Vpr^30-40]: in the assay with human cyclophilin A [1], the binding result is recorded as “binds”.

B1: full-length synthetic HIV-1 Vpr (Vpr^1-96) (natural protein)
chain: MEQAPEDQGPQREPYNEWTLELLEELKSEAVRHFPRIWLHNLGQHIYETYGDTWAGVEAIIRILQQLLFIHFRIGCRHSRIGVTRQRRARNGASRS
As to B1, in the assay with human cyclophilin A [2], the Kd is 310 nM and 320 nM; the koff is 0.007 s⁻¹ and 0.00422 s⁻¹; the kon was 32000 M⁻¹ s⁻¹ and 16000 M⁻¹ s⁻¹.

B2: Vpr^75-90 (peptide)
peptide: GCRHSRIGVTRQRRAR
notes: HIV-1 Vpr residues 75-90; source: synthetic peptide
In the assay with human cyclophilin A [2], B2 returned a Kd of 280 nM, a koff of 0.0063 s⁻¹ and a kon of 81000 M⁻¹ s⁻¹. Also, in the assay with human cyclophilin A [3], the Ka is 9e+06 M⁻¹ and 1.7e+07 M⁻¹; the Kd is 120 nM and 60 nM; the dH was -17.4 kcal/mol and -16.5 kcal/mol; the “stoichiometry N” value is 0.98 and 1.

On to GCRHSAIGVTRQRRAR (source: synthetic peptide) [Vpr^75-90 (R80A)], for which, in the assay with human cyclophilin A [2], the Kd is 7500 nM, the koff is 0.027 s⁻¹ and the kon turned out to be 3800 M⁻¹ s⁻¹.

(Values after article PMC3269379, “The Host-Pathogen interaction of human cyclophilin A and HIV-1 Vpr requires specific N-terminal and novel C-terminal domains” (BMC Structural Biology, 2011).)
